We go through 1 molecule from patent US20100298224A1 (UNIVERSITE PARIS SUD XI, published 2010).

Where only a bound is given, the exact number is not on record here.

This test concerns the target T1, factor Xa (FXa, Kordia) (UniProt P00742 41-179; P00742 235-488, limits assumed).
T1 construct: The bovine factor Xa of the Rotachrom kit is a different reagent and is not used here
Kind of test: ratio of kon for FXa inhibition against plasma AT, with pentasaccharide. As for the experimental part:
In a second time FXa residual activity is measured by adding 190 μl of S2765 (200 μM) to 10 μl of previous mixture. Initial rate of substrate hydrolysis is then plotted as the function of incubation time with inhibitor and curves are fitted with equation 1 to determine kon (gray lines). Time expressed in minute is plotted in abscissa; substrate hydrolysis rate expressed in OD/s⁻¹ is plotted in ordinate.

T1 sequence (P00742 41-179 limits assumed, form in doubt, chain 1 of 2): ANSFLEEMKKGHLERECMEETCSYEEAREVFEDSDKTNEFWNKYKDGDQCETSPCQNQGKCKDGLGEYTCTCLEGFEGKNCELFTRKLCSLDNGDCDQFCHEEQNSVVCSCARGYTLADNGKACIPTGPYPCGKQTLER
T1 sequence (P00742 235-488 limits assumed, form in doubt, chain 2 of 2): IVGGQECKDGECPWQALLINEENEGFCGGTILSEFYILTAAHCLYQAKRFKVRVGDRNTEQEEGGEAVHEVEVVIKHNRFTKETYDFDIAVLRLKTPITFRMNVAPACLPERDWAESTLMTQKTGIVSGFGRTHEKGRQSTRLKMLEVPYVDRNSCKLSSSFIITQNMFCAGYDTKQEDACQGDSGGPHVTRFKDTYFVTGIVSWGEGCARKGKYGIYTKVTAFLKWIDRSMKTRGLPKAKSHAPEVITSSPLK

B1: AT-N135Q-Pro394 (other)
chain: HGSPVDICTAKPRDIPMNPMCIYRSPEKKATEDEGSEQKIPEATNRRVWELSKANSRFATTFYQHLADSKNDNDNIFLSPLSISTAFAMTKLGACNDTLQQLMEVFKFDTISEKTSDQIHFFFAKLNCRLYRKAQKSSKLVSANRLFGDKSLTFNETYQDISELVYGAKLQPLDFKENAEQSRAAINKWVSNKTEGRITDVIPSEAINELTVLVLVNTIYFKGLWKSKFSPENTRKELFYKADGESCSASMMYQEGKFRYRRVAEGTQVLELPFKGDDITMVLILPKPEKSLAKVEKELTPEVLQEWLDELEEMMLVVHMPRFRIEDGFSLKEQLQDMGLVDLFSPEKSKLPGIVAEGRDDLYVSDAFHKAFLEVNEEGSEAAASTAVVIAGRPSLNPNRVTFKANRPFLVFIREVPLNTIIFMGRVANPCVK
notes: Recombinant double mutant antithrombin made in HEK-293 or BHK-21 cells, secreted
Regarding B1, the “fold lower kon than plasma AT” value was no less than 7600 fold.
